Source: publication PMC9984387, “The dynamic nature of netrin-1 and the structural basis for glycosaminoglycan fragment-induced filament formation” (Nature Communications, 2023)

Target: His-tagged NET1ΔC (coated in ELISA) (not stated (chicken or mouse cDNA cloned))
Assay: ELISA; NET1ΔC coated; serial dilutions of strep-tagged HSPGs (0.5–500 nM) in solution; detection with strep-HRP; apparent constants

Kd: 10 to 20 nM
Substance: glypican-3 (AF185614 aa 25-557 R357A) (from UniProt Q8CFZ4 25-557) (domain or fragment)
